Source: patent US20170275666A1, “Methods for Preparing Rebaudioside I and Uses” (The Coca-Cola Company, priority 2014, published 2017)

Assay: Directed evolution of UGT76G1, conversion of Rebaudioside D to Rebaudioside M (round 1)
Assay type: biochemical
Details: 0.5 mM Rebaudioside D, 2.5 mM UDP-Glucose, 100 μL fresh lysate, 30° C., pH 7.2
Outline: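 UGT76G1 variants carrying 3-5 designed mutations were expressed in E. coli BL21(DE3) (pET30a+, 44 h at 20° C) and lysed. Lysate was reacted with 0.5 mM Reb D, 2.5 mM UDP-glucose, 3 mM MgCl2 in 50 mM phosphate pH 7.2 at 30° C; HPLC-CAD sampling at 2, 4, 7, 24 h gave conversion and initial rate.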

| Molecule | Conversion Reb D to Reb M after 24 h (%) | initial rate (Reb M area/min) |
| --- | --- | --- |
| UGT76G1var76: UGT76G1 variant, mutations F22Y_A239I_L246F_I295M_R334K (protein, UniProt Q6VAB4 1-458, looked up, variant F22Y A239I L246F I295M R334K) UDP-glycosyltransferase 76G1: MENKTETTVRRRRRIILFPVPYQGHINPILQLANVLYSKGFSITIFHTNFNKPKTSNYPHFTFRFILDNDPQDERISNLPTHGPLAGMRIPIINEHGADELRRELELLMLASEEDEEVSCLITDALWYFAQSVADSLNLRRLVLMTSSLFNFHAHVSLPQFDELGYLDPDDKTRLEEQASGFPMLKVKDIKSAYSNWQILKEILGKMIKQTKASSGVIWNSFKELEESELETVIREIPIPSFLIPFPKHLTASSSSLLDHDRTVFQWLDQQPPSSVLYVSFGSTSEVDEKDFLEMARGLVDSKQSFLWVVRPGFVKGSTWVEPLPDGFLGERGKIVKWVPQQEVLAHGAIGAFWTHSGWNSTLESVCEGVPMIFSDFGLDQPLNARYMSDVLKVGVYLENGWERGEIANAIRRVMVDEEGEYIRQNARVLKQKADVSLMKGGSSYESLESLVSYISSL | 2.6% | 7.2E+05 Reb M area/min |
| UGT76G1var5: UGT76G1 variant, mutations F22Y_I373L_P382M (protein, UniProt Q6VAB4 1-458, looked up, variant F22Y I373L P382M) UDP-glycosyltransferase 76G1: MENKTETTVRRRRRIILFPVPYQGHINPILQLANVLYSKGFSITIFHTNFNKPKTSNYPHFTFRFILDNDPQDERISNLPTHGPLAGMRIPIINEHGADELRRELELLMLASEEDEEVSCLITDALWYFAQSVADSLNLRRLVLMTSSLFNFHAHVSLPQFDELGYLDPDDKTRLEEQASGFPMLKVKDIKSAYSNWQILKEILGKMIKQTKASSGVIWNSFKELEESELETVIREIPAPSFLIPLPKHLTASSSSLLDHDRTVFQWLDQQPPSSVLYVSFGSTSEVDEKDFLEIARGLVDSKQSFLWVVRPGFVKGSTWVEPLPDGFLGERGRIVKWVPQQEVLAHGAIGAFWTHSGWNSTLESVCEGVPMLFSDFGLDQMLNARYMSDVLKVGVYLENGWERGEIANAIRRVMVDEEGEYIRQNARVLKQKADVSLMKGGSSYESLESLVSYISSL | 3.5% | 2.3E+06 Reb M area/min |
| UGT76G1var81: UGT76G1 variant, mutations A33G_T263S_S274G_V279I_Y397E (protein, UniProt Q6VAB4 1-458, looked up, variant A33G T263S S274G V279I Y397E) UDP-glycosyltransferase 76G1: MENKTETTVRRRRRIILFPVPFQGHINPILQLGNVLYSKGFSITIFHTNFNKPKTSNYPHFTFRFILDNDPQDERISNLPTHGPLAGMRIPIINEHGADELRRELELLMLASEEDEEVSCLITDALWYFAQSVADSLNLRRLVLMTSSLFNFHAHVSLPQFDELGYLDPDDKTRLEEQASGFPMLKVKDIKSAYSNWQILKEILGKMIKQTKASSGVIWNSFKELEESELETVIREIPAPSFLIPLPKHLTASSSSLLDHDRSVFQWLDQQPPGSVLYISFGSTSEVDEKDFLEIARGLVDSKQSFLWVVRPGFVKGSTWVEPLPDGFLGERGRIVKWVPQQEVLAHGAIGAFWTHSGWNSTLESVCEGVPMIFSDFGLDQPLNARYMSDVLKVGVELENGWERGEIANAIRRVMVDEEGEYIRQNARVLKQKADVSLMKGGSSYESLESLVSYISSL | 15.0% | 6.5E+06 Reb M area/min |
| UGT76G1var79: UGT76G1 variant, mutations E224D_T284I_V366I_I373L_K393G (protein, UniProt Q6VAB4 1-458, looked up, variant E224D T284I V366I I373L K393G) UDP-glycosyltransferase 76G1: MENKTETTVRRRRRIILFPVPFQGHINPILQLANVLYSKGFSITIFHTNFNKPKTSNYPHFTFRFILDNDPQDERISNLPTHGPLAGMRIPIINEHGADELRRELELLMLASEEDEEVSCLITDALWYFAQSVADSLNLRRLVLMTSSLFNFHAHVSLPQFDELGYLDPDDKTRLEEQASGFPMLKVKDIKSAYSNWQILKEILGKMIKQTKASSGVIWNSFKDLEESELETVIREIPAPSFLIPLPKHLTASSSSLLDHDRTVFQWLDQQPPSSVLYVSFGSISEVDEKDFLEIARGLVDSKQSFLWVVRPGFVKGSTWVEPLPDGFLGERGRIVKWVPQQEVLAHGAIGAFWTHSGWNSTLESICEGVPMLFSDFGLDQPLNARYMSDVLGVGVYLENGWERGEIANAIRRVMVDEEGEYIRQNARVLKQKADVSLMKGGSSYESLESLVSYISSL | 8.5% | 3.8E+06 Reb M area/min |
| UGT76G1var78: UGT76G1 variant, mutations V279I_V300A_V310I_I335V_S357C (protein, UniProt Q6VAB4 1-458, looked up, variant V279I V300A V310I I335V S357C) UDP-glycosyltransferase 76G1: MENKTETTVRRRRRIILFPVPFQGHINPILQLANVLYSKGFSITIFHTNFNKPKTSNYPHFTFRFILDNDPQDERISNLPTHGPLAGMRIPIINEHGADELRRELELLMLASEEDEEVSCLITDALWYFAQSVADSLNLRRLVLMTSSLFNFHAHVSLPQFDELGYLDPDDKTRLEEQASGFPMLKVKDIKSAYSNWQILKEILGKMIKQTKASSGVIWNSFKELEESELETVIREIPAPSFLIPLPKHLTASSSSLLDHDRTVFQWLDQQPPSSVLYISFGSTSEVDEKDFLEIARGLADSKQSFLWVIRPGFVKGSTWVEPLPDGFLGERGRVVKWVPQQEVLAHGAIGAFWTHCGWNSTLESVCEGVPMIFSDFGLDQPLNARYMSDVLKVGVYLENGWERGEIANAIRRVMVDEEGEYIRQNARVLKQKADVSLMKGGSSYESLESLVSYISSL | 3.2% | 8.2E+05 Reb M area/min |
| UGT76G1var80: UGT76G1 variant, mutations L243P_L379A_S389E_Q425E_Q432E (protein, UniProt Q6VAB4 1-458, looked up, variant L243P L379A S389E Q425E Q432E) UDP-glycosyltransferase 76G1: MENKTETTVRRRRRIILFPVPFQGHINPILQLANVLYSKGFSITIFHTNFNKPKTSNYPHFTFRFILDNDPQDERISNLPTHGPLAGMRIPIINEHGADELRRELELLMLASEEDEEVSCLITDALWYFAQSVADSLNLRRLVLMTSSLFNFHAHVSLPQFDELGYLDPDDKTRLEEQASGFPMLKVKDIKSAYSNWQILKEILGKMIKQTKASSGVIWNSFKELEESELETVIREIPAPSFPIPLPKHLTASSSSLLDHDRTVFQWLDQQPPSSVLYVSFGSTSEVDEKDFLEIARGLVDSKQSFLWVVRPGFVKGSTWVEPLPDGFLGERGRIVKWVPQQEVLAHGAIGAFWTHSGWNSTLESVCEGVPMIFSDFGADQPLNARYMEDVLKVGVYLENGWERGEIANAIRRVMVDEEGEYIRENARVLKEKADVSLMKGGSSYESLESLVSYISSL | 1.0% | 2.1E+05 Reb M area/min |
| UGT76G1var77: UGT76G1 variant, mutations A239V_F265I_I295T_D301N_K393G (protein, UniProt Q6VAB4 1-458, looked up, variant A239V F265I I295T D301N K393G) UDP-glycosyltransferase 76G1: MENKTETTVRRRRRIILFPVPFQGHINPILQLANVLYSKGFSITIFHTNFNKPKTSNYPHFTFRFILDNDPQDERISNLPTHGPLAGMRIPIINEHGADELRRELELLMLASEEDEEVSCLITDALWYFAQSVADSLNLRRLVLMTSSLFNFHAHVSLPQFDELGYLDPDDKTRLEEQASGFPMLKVKDIKSAYSNWQILKEILGKMIKQTKASSGVIWNSFKELEESELETVIREIPVPSFLIPLPKHLTASSSSLLDHDRTVIQWLDQQPPSSVLYVSFGSTSEVDEKDFLETARGLVNSKQSFLWVVRPGFVKGSTWVEPLPDGFLGERGRIVKWVPQQEVLAHGAIGAFWTHSGWNSTLESVCEGVPMIFSDFGLDQPLNARYMSDVLGVGVYLENGWERGEIANAIRRVMVDEEGEYIRQNARVLKQKADVSLMKGGSSYESLESLVSYISSL | 1.9% | 4.4E+05 Reb M area/min |
